Read-outs that look alike come from different tables or passages of the source.
Key:
[1] = test system: E. coli expressed recombinant α-N-acetylgalactosaminidase (New England BioLabs, catalog no. P0734B, proprietary strain); test: Preliminary Km with tetrasaccharide AMC substrate (densitometric scans of substrate/product ratio); type: biochemical; details: assay unreliable at low concentrations, Km possibly even lower than 20 μM, read-out: Km for the blood group A oligosaccharide substrates
From the text: (§1) The assay used for this determination involved densitometric scans of the substrate/product ratio using the tetrasaccharide AMC substrate (GalNAcα1-3(Fucα1-2)Galβ1-4GalNAc-AMC).

[2] = test system: Recombinant coffee bean (Coffea canephora) α-galactosidase; details: apparent; pH 5.5, 26° C.; Zhu et al. 1995; cited from earlier work
[3] = test system: R. torgues (Ruminococcus torques) α-N-acetylgalactosaminidase, isolated to apparent homogeneity; details: Hoskins et al. 1997; cited from earlier work
[4] = test system: Recombinant chicken liver α-N-acetylgalactosaminidase; details: apparent; pH 3.65, 37° C.; Zhu et al. 1996; cited from earlier work
[5] = test system: E. coli expressed recombinant α-N-acetylgalactosaminidase (New England BioLabs, catalog no. P0734B, proprietary strain); test: Apparent Km and Vmax with monosaccharide derivative (p-nitrophenol at 405 nm, Lineweaver-Burk), Table XI; type: biochemical; details: pH 7.0, 37° C.
Method: Commercial Recombinant α-N-Acetylgalactosaminidase (New England Biolabs): • vii) 0.5 mM as a starting concentration of αGalNAc p-nitrophenyl monosaccharide derivative in a tube containing 0.05 M Sodium phosphate buffer pH 7.0 was sequentially diluted 2 fold by mixing it with an equal volume of buffer. […] of enzyme was added to each tube and incubated for 10 min at 37° C. The reaction was quenched by adding an equal volume of 0.2 M sodium borate buffer (pH 9.8). The amount of the liberated p-nitrophenol was determined by measuring the absorbance at 405 nm.

[6] = Activity with blood group A tetrasaccharide AMC substrate (HPTLC); type: biochemical
Method: FIG. 10 illustrates the activity of E. coli expressed α-N-acetylgalactosaminidase with the blood group A tetrasaccharide AMC substrate at different pH. Assays were performed in reactions of 10 μl containing 1 nmole of α-tetra, 0.05 μg enzyme, and the buffer Na Citrate-NaPO4 at varying pH 2.6-8.0. Reactions were incubated 40 min at 26° C., and 3 μl samples analyzed by HPTLC. Panel A: HPTLC analysis; Panel B: Substrate cleavage quantified by scanning and plotted against pH.
Assays with Derivatized oligosaccharide substrates (AMC, OGr) were performed by the following procedure: • iii) One (AMC) or 5 (OGr) nmol substrate in reaction mixtures of a total volume of 10 μl containing 50 mM sodium citrate (pH 6.0) was incubated at 26° C. Aliquots of 2.5-3.0 μl were taken at different time points (0′, 15′, 30′, 60′) to follow product development. Product development was analyzed by HPTLC in chloroform-methanol-water (vol/vol/vol: 60/35/8) and visualized by UV or orcinol staining. […]
as §1

[7] = Activity with repetitive A heptasaccharide AMC substrate (HPTLC); type: biochemical
Method: FIG. 5b is an HPTLC analysis of five selected Streptomycete α-N-acetylgalactosaminidase activities with the blood group A tetrasaccharide (Panel B-1) and A heptasaccharide AMC (Panel B-2) substrate. Streptomycete strains identified by numbers as in Table VII. […] Reactions were incubated 180 min at 30° C., and 2.5 μl of the reaction mixture was spotted onto HPTLC and developed in CHCl3:methanol:H2O (60:35:8) and photographed. Migration of trisaccharide (H), and tetrasaccharide (A), heptasaccharide and hexasaccharide (H-A) AMC derivatives is indicated by arrows. NE, no enzyme control; rCHl-Az, recombinant Chicken liver A-zyme; Origin, sample application position. The appearance of a disaccharide AMC is due to contaminating α-fucosidase activity.
Aliquots of 2.5-3.0 μl were taken at different time points (0′, 15′, 30′, 60′) to follow product development. Product development was analyzed by HPTLC in chloroform-methanol-water (vol/vol/vol: 60/35/8) and visualized by UV or orcinol staining.

A2 red blood cells = test: Enzymatic conversion of A2 red blood cells, hemagglutination typing; type: cell-based, human; details: A2 donors; chicken enzyme 100-200 U/ml, protocols A-C (pH 7.4 or 5.5, 30-37° C., 180 min to 4 hours)
From the text: (§2) It is evident from the data in Table XII that apparent removal of A antigens is achieved, when defined by one particular anti-blood group A specific monoclonal antibody that is not approved for blood typing procedures (DAKO). A large number of such antibodies exist and, due to specificity and low affinity binding, they are inappropriate for serological typing purposes. Development of monoclonal cocktails for ABO routine typing to substitute previously used polyclonal antibody reagents was a major achievement for the blood bank industry in 1990s. […] Details of the typing assay used in this example is as follows: • Approved typing reagents used in hemagglutination assays were murine monoclonal antibodies and plant lectins obtained from Ortho Clinical Diagnostics, Raritan, N.J.; Gamma Biologicals/Immucor, Norcross, Ga. Non-approved reagents included murine monoclonal anti-A antibody from Dako and a panel of monoclonal antibodies to blood group A variants produced by H. Clausen (Clausen et al., Proc. Natl. Acad. Sci. USA 82(4): 1199-203, 1985, Clausen et al., J Biol Chem. 261(3): 1380-7, 1986, Clausen et al., Biochemistry 25(22): 7075-85, 1986, Clausen et al., J Biol Chem. 262(29): 14228-34, 1987). Typing reagents were used according to the manufacturers recommendations and other monoclonal antibodies as determined by titrations. Hemagglutination Assay (Room Temperature) 1. […]

[8] = cited from earlier work; for Specific activity with GalNAcα1-pNP: pH 3.65 (optimal pH)
A1 red blood cells = test: Enzymatic conversion of A1 red blood cells, hemagglutination typing; type: cell-based, human; details: A1 donors; chicken enzyme 200 U/ml, 50% hematocrit, 37° C., 4 hours (protocols B, C)
From the text: as §2

[9] = Activity with blood group A tetrasaccharide AMC substrate (HPTLC); type: biochemical; details: for difference of specific activity, GalNAcα1-pNP versus A tetrasaccharide substrate: pH 3.65; for Specific activity with blood group A tetrasaccharide-AMC: pH 5.5
[10] = Dean and Sweeley 1979; cited from earlier work
[11] = listed as chicken α-N-acetylgalactosaminidase
[12] = listed as recombinant chicken α-N-acetylgalactosaminidase

Molecule: GalNAcα1-3(Fucα1-2)Galβ1-4GalNAc-AMC
- Km [1]: ~20 µM

Molecule: O=[N+]([O-])c1ccc(O[C@H]2O[C@H](CO)[C@H](O)[C@H](O)[C@H]2O)cc1 [Galα1-pNP, p-nitrophenyl α-galactoside]
- Km [2]: 363 µM
- Vmax [2]: 46.9 U/mg^1

Molecule: CC(=O)N[C@H]1[C@@H](Oc2ccc([N+](=O)[O-])cc2)O[C@H](CO)[C@H](O)[C@@H]1O [GalNAcα1-pNP, p-nitrophenyl-α-D-N-acetylgalactosaminopyranoside]
- Km [3]: 2 to 8 mM
- Km [4]: 827 µM
- Vmax [4]: 60.9 U/mg^3
- Km [5]: 10 to 50 µM
- Vmax [5]: 3.3 U/mg^3

B1: Recombinant Chicken Liver α-N-acetylgalactosaminidase: Chicken liver α-N-acetylgalactosaminidase, recombinant, expressed in P. pastoris; prior-art enzyme for A cell conversion (protein, UniProt Q90744 1-405, looked up)
Alpha-N-acetylgalactosaminidas …: LENGLARTPPMGWLAWERFRCNVNCREDPRQCISEMLFMEMADRIAEDGWRELGYKYINIDDCWAAKQRDAEGRLVPDPERFPRGIKALADYVHARGLKLDIYGDLGRLTCGGYPGTTLDRVEQDAQTFAEWGVDMLKLDGCYSSGKEQAQGYPQMARALNSTGRPIVYSCSWPAYQGGLPPKVNYTLLGEICNLWRNYDDIQDSWDSVLSIVDWFFTNQDVLQPFAGPGHWNDPDMLIIGNFGLSYEQSRSQMALWTIMAAPLLMSTDLRTISPSAKKILQNRLMIQINQDPLGIQGRRIIKEGSHIEVFLRPLSQAASALVFFSRRTDMPFRYTTSLAKLGFPMGAAYEVQDVYSGKIISGLKTGDNFTVIINPSGVVMWYLCPKALLIQQQAPGGPSRLPLL
- pH optimum with the blood group A tetrasaccharide AMC substrate ([6]; not shown): 3.5-4.5
- Specific activity with blood group A tetrasaccharide-AMC ([6]; pH 3.65): 0.5 U/mg
- Specific activity with blood group A tetrasaccharide-AMC ([6]; pH 3.65, listed as chicken α-N-acetylgalactosaminidase): 0.3 U/mg
- Specific activity with blood group A tetrasaccharide-AMC ([6]; pH 3.65, listed as recombinant chicken α-N-acetylgalactosaminidase): 0.3 U/mg
- Specific activity with blood group A tetrasaccharide-AMC ([6]; pH 5.5): 0.4 U/mg
- specific activity with A type 2 tetrasaccharide AMC derivative (structure 3) ([6]; pH not stated): approximately 0.3 U/mg
- Specific activity with repetitive A heptasaccharide-AMC ([7]; pH 3.65): 0.5 U/mg
- Specific activity with repetitive A heptasaccharide-AMC ([7]; pH 5.5): 0.4 U/mg
- specific activity with repetitive A type 3 AMC derivative (structure 6) ([7]; pH not stated): approximately 0.3 U/mg
- Agglutination, Dolichos biflorus, post enzyme treatment (A2 red blood cells): 0
- specific activity using p-nitrophenyl αGalNAc as substrate ([8]; literature values, pH not stated): 51-56 U/mg
- Specific activity with GalNAcα1-pNP [8]: 50 U/mg^3
- Specific activity with GalNAcα1-pNP [8, 11]: approximately 50 U/mg
- Specific activity with GalNAcα1-pNP [8, 12]: approximately 50 U/mg
- Agglutination, Dolichos biflorus, post enzyme treatment (A1 red blood cells): 0
- difference of specific activity, GalNAcα1-pNP versus A tetrasaccharide substrate [9, 11]: over 100 fold
- difference of specific activity, GalNAcα1-pNP versus A tetrasaccharide substrate [9, 12]: 166 fold
- Specific activity with blood group A tetrasaccharide-AMC [9, 11]: 0.2 U/mg
- Specific activity with blood group A tetrasaccharide-AMC [9, 12]: 0.2 U/mg

B2: human α-N-acetylgalactosaminidase: human α-N-acetylgalactosaminidase (alpha-galactosidase B), isolated, cloned and expressed (protein, UniProt P17050 18-411, looked up)
Alpha-N-acetylgalactosaminidas …: LDNGLLQTPPMGWLAWERFRCNINCDEDPKNCISEQLFMEMADRMAQDGWRDMGYTYLNIDDCWIGGRDASGRLMPDPKRFPHGIPFLADYVHSLGLKLGIYADMGNFTCMGYPGTTLDKVVQDAQTFAEWKVDMLKLDGCFSTPEERAQGYPKMAAALNATGRPIAFSCSWPAYEGGLPPRVNYSLLADICNLWRNYDDIQDSWWSVLSILNWFVEHQDILQPVAGPGHWNDPDMLLIGNFGLSLEQSRAQMALWTVLAAPLLMSTDLRTISAQNMDILQNPLMIKINQDPLGIQGRRIHKEKSLIEVYMRPLSNKASALVFFSCRTDMPYRYHSSLGQLNFTGSVIYEAQDVYSGDIISGLRDETNFTVIINPSGVVMWYLYPIKNLEMSQQ
- pH optimum [10]: 3.5

Reference: patent US7767415B2, “Compositions and methods for modifying blood cell carbohydrates” (Velico Medical, Inc., priority 2001, dated 2010)
